Here are results for one substance from paper doi:10.1101/2023.09.15.557927.

The target in this test is FITC-labeled BMF peptide (FITC-…). The test is described as follows: fluorescence polarisation.

6xHis-tagged LC8 (DYNLL2), sequence (Q96FJ2 whole entry): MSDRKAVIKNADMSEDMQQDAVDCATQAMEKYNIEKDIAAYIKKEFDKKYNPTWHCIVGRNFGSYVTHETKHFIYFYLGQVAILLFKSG

In turn, “6xHis-tagged LC8 (DYNLL2) (from UniProt Q96FJ2 1-89) (natural protein)” gave an LC8 concentration at 80% saturation of the labeled BMF peptide of 12 µM.
